The test concerns the target T1, HLA-A*02:01 (human).
T1 construct: monomers captured on streptavidin plates; also called MHC class I
The experiment in a line: UV peptide exchange ELISA. In a few lines:
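Peptide-MHC complexes formed by UV-triggered exchange of a cleavable peptide for the test peptide, with stabilised complexes indicating binding. Exchange products diluted 100 fold onto streptavidin-coated wells, 1h at 37° C.; HRP anti-β2m (2 μg/ml), TMB, absorbance at 450 nm gives exchange yield.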
Background: In an ELISA, binding on a coated surface is turned into a signal by an enzyme label.

Regarding GLIEDYEALL, the peptide exchange yield lay within 50 to 75%.

In turn, KIFDIDEAEEGV gave a peptide exchange yield of 20 to 50%.

ALMERTGYSMV came in with a peptide exchange yield of 50 to 75%.

With GLLHLTLLL, the peptide exchange yield lay within 50 to 75%.

SVAPNLPAV displayed a peptide exchange yield of 50 to 75%.

For KLLEVSDDPQV, the peptide exchange yield fell in the range of 50 to 75%.

For SLAPGDVVRQV, the peptide exchange yield was in the range of 20 to 50%.

The molecule FLLQHVQEL had a peptide exchange yield of 50 to 75%.

As for KLIDDQDISISL, the peptide exchange yield is 50 to 75%.

On to KMWEELPEVV, for which the peptide exchange yield lay in the range of 50 to 75%.

As for GLLGEKTQDLIGV, the peptide exchange yield is 50 to 75%.

As to YVLEDLEVTV, the peptide exchange yield lay in the range of 20 to 50%.

In turn, SLMEDQVLQL came in with a peptide exchange yield of 50 to 75%.

In turn, GLSDGNPSL returned a peptide exchange yield of 20 to 50%.

In the case of YLDPALELGPRNV, the peptide exchange yield is 50 to 75%.

The molecule LLMPIPEGLTL came in with a peptide exchange yield of 50 to 75%.

Molecule LLQELVLFL displayed a peptide exchange yield of 50 to 75%.

Molecule GLLEKLTAI registered a peptide exchange yield of 50 to 75%.

Regarding AMATESILHFA, the peptide exchange yield lay in the range of 50 to 75%.

In the case of SLNHFTHSV, the peptide exchange yield was 50 to 75%.

In the case of ALLEDSCHYL, the peptide exchange yield was 50 to 75%.

Molecule KLNAEVACV yielded a peptide exchange yield of 50 to 75%.

Regarding KLYSVVSQL, the peptide exchange yield lay in the range of 20 to 50%.

In the case of FLAEDPKVTL, the peptide exchange yield is 50 to 75%.

Molecule LLINSVFHV showed a peptide exchange yield of 50 to 75%.

Consider AVMESIQGV, for which the peptide exchange yield lay in the range of 50 to 75%.

As to KLLGKVETA, the peptide exchange yield was in the range of 50 to 75%.

The molecule ILAQEQLVVGV yielded a peptide exchange yield of 50 to 75%.

On to LLLNEEALAQI, for which the peptide exchange yield was 50 to 75%.

On to SLFDGFADGLGV, for which the peptide exchange yield fell in the range of 50 to 75%.

For FLDPYCSASV, the peptide exchange yield lay in the range of 20 to 50%.

As for NVPDSFNEV, the peptide exchange yield lay in the range of 50 to 75%.

Take KLWTGGLDNTV: the peptide exchange yield lay in the range of 50 to 75%.

Regarding AVGPASILKEV, the peptide exchange yield is 20 to 50%.

Molecule LLDPNVKSIFV yielded a peptide exchange yield of 50 to 75%.

The molecule FLFDTKPLIV came in with a peptide exchange yield of 50 to 75%.

As to ALQPEPIKV, the peptide exchange yield is 20 to 50%.

GLNDRSDAV yielded a peptide exchange yield of 20 to 50%.

As for ALLPASGQIAL, the peptide exchange yield is 50 to 75%.

SLSEIVPCL returned a peptide exchange yield of 50 to 75%.

The molecule SLWPSPEQL came in with a peptide exchange yield of 20 to 50%.

On to FIFSEKPVFV, for which the peptide exchange yield was 50 to 75%.

TLLVKVFSV showed a peptide exchange yield of 50 to 75%.

The molecule SLIEKVTQL showed a peptide exchange yield of 50 to 75%.

In turn, RLLAQVPGL returned a peptide exchange yield of 50 to 75%.

Take SLFGNSGILENV: the peptide exchange yield is 50 to 75%.

Molecule YLLHEKLNL registered a peptide exchange yield of 50 to 75%.

The molecule FLVEKQPPQV showed a peptide exchange yield of 50 to 75%.

For FLLEDDIHVS, the peptide exchange yield lay in the range of 50 to 75%.

The record behind these values is US20170037110A1 (IMMATICS BIOTECHNOLOGIES, published 2017).
